Measured values as given in patent US20110118447A1.

Molecular target: binding partner of C5A (XPA23)
Test: Biacore K-off

Row | Binder | fold difference in affinity vs original [fold]
1 | C5A (XPA23) VL D28N (antibody, V domains shown) VH: EVQLLESGGGLVQPGGSLRLSCAASGFTFSKYFMFWVRQAPGKGLEWVSVISPSGGMTRYADSVKGRFTISRDNSKNTLYLQMNSLRAEDTAVYYCARVGYGGNSDYWGQGTLVTVSS VL: DIQMTQSPSSVSASVGDRLTIICRASQNINRWLAWYQQTPGNAPKLLIHSATSLQSGVPSRFSGSGSGTDFTLTINSLQPEDFATYYCQQADSFPLTFGGGTKVEIK | 1
2 | C5A (XPA23) VL N30E (antibody, V domains shown) VH: EVQLLESGGGLVQPGGSLRLSCAASGFTFSKYFMFWVRQAPGKGLEWVSVISPSGGMTRYADSVKGRFTISRDNSKNTLYLQMNSLRAEDTAVYYCARVGYGGNSDYWGQGTLVTVSS VL: DIQMTQSPSSVSASVGDRLTIICRASQDIERWLAWYQQTPGNAPKLLIHSATSLQSGVPSRFSGSGSGTDFTLTINSLQPEDFATYYCQQADSFPLTFGGGTKVEIK | 0.64
3 | C5A (XPA23) VL N30K (antibody, V domains shown) VH: EVQLLESGGGLVQPGGSLRLSCAASGFTFSKYFMFWVRQAPGKGLEWVSVISPSGGMTRYADSVKGRFTISRDNSKNTLYLQMNSLRAEDTAVYYCARVGYGGNSDYWGQGTLVTVSS VL: DIQMTQSPSSVSASVGDRLTIICRASQDIKRWLAWYQQTPGNAPKLLIHSATSLQSGVPSRFSGSGSGTDFTLTINSLQPEDFATYYCQQADSFPLTFGGGTKVEIK | 0.61
4 | C5A (XPA23) VL Q27R (antibody, V domains shown) VH: EVQLLESGGGLVQPGGSLRLSCAASGFTFSKYFMFWVRQAPGKGLEWVSVISPSGGMTRYADSVKGRFTISRDNSKNTLYLQMNSLRAEDTAVYYCARVGYGGNSDYWGQGTLVTVSS VL: DIQMTQSPSSVSASVGDRLTIICRASRDINRWLAWYQQTPGNAPKLLIHSATSLQSGVPSRFSGSGSGTDFTLTINSLQPEDFATYYCQQADSFPLTFGGGTKVEIK | 0.89
5 | C5A (XPA23) VL D28H (antibody, V domains shown) VH: EVQLLESGGGLVQPGGSLRLSCAASGFTFSKYFMFWVRQAPGKGLEWVSVISPSGGMTRYADSVKGRFTISRDNSKNTLYLQMNSLRAEDTAVYYCARVGYGGNSDYWGQGTLVTVSS VL: DIQMTQSPSSVSASVGDRLTIICRASQHINRWLAWYQQTPGNAPKLLIHSATSLQSGVPSRFSGSGSGTDFTLTINSLQPEDFATYYCQQADSFPLTFGGGTKVEIK | 1.23
6 | C5A (XPA23) VL D28E (antibody, V domains shown) VH: EVQLLESGGGLVQPGGSLRLSCAASGFTFSKYFMFWVRQAPGKGLEWVSVISPSGGMTRYADSVKGRFTISRDNSKNTLYLQMNSLRAEDTAVYYCARVGYGGNSDYWGQGTLVTVSS VL: DIQMTQSPSSVSASVGDRLTIICRASQEINRWLAWYQQTPGNAPKLLIHSATSLQSGVPSRFSGSGSGTDFTLTINSLQPEDFATYYCQQADSFPLTFGGGTKVEIK | 0.74
7 | C5A (XPA23) VL Q27E (antibody, V domains shown) VH: EVQLLESGGGLVQPGGSLRLSCAASGFTFSKYFMFWVRQAPGKGLEWVSVISPSGGMTRYADSVKGRFTISRDNSKNTLYLQMNSLRAEDTAVYYCARVGYGGNSDYWGQGTLVTVSS VL: DIQMTQSPSSVSASVGDRLTIICRASEDINRWLAWYQQTPGNAPKLLIHSATSLQSGVPSRFSGSGSGTDFTLTINSLQPEDFATYYCQQADSFPLTFGGGTKVEIK | 1.08
8 | C5A (XPA23) VL N30S (antibody, V domains shown) VH: EVQLLESGGGLVQPGGSLRLSCAASGFTFSKYFMFWVRQAPGKGLEWVSVISPSGGMTRYADSVKGRFTISRDNSKNTLYLQMNSLRAEDTAVYYCARVGYGGNSDYWGQGTLVTVSS VL: DIQMTQSPSSVSASVGDRLTIICRASQDISRWLAWYQQTPGNAPKLLIHSATSLQSGVPSRFSGSGSGTDFTLTINSLQPEDFATYYCQQADSFPLTFGGGTKVEIK | 0.72
9 | C5A (XPA23) VL Q27T (antibody, V domains shown) VH: EVQLLESGGGLVQPGGSLRLSCAASGFTFSKYFMFWVRQAPGKGLEWVSVISPSGGMTRYADSVKGRFTISRDNSKNTLYLQMNSLRAEDTAVYYCARVGYGGNSDYWGQGTLVTVSS VL: DIQMTQSPSSVSASVGDRLTIICRASTDINRWLAWYQQTPGNAPKLLIHSATSLQSGVPSRFSGSGSGTDFTLTINSLQPEDFATYYCQQADSFPLTFGGGTKVEIK | 0.64
10 | C5A (XPA23) VL D28K (antibody, V domains shown) VH: EVQLLESGGGLVQPGGSLRLSCAASGFTFSKYFMFWVRQAPGKGLEWVSVISPSGGMTRYADSVKGRFTISRDNSKNTLYLQMNSLRAEDTAVYYCARVGYGGNSDYWGQGTLVTVSS VL: DIQMTQSPSSVSASVGDRLTIICRASQKINRWLAWYQQTPGNAPKLLIHSATSLQSGVPSRFSGSGSGTDFTLTINSLQPEDFATYYCQQADSFPLTFGGGTKVEIK | 0.82

Next, values leading:

Row | fold difference in affinity vs original [fold] | Binder
11 | 1.07 | C5A (XPA23) VL Q27D (antibody, V domains shown) VH: EVQLLESGGGLVQPGGSLRLSCAASGFTFSKYFMFWVRQAPGKGLEWVSVISPSGGMTRYADSVKGRFTISRDNSKNTLYLQMNSLRAEDTAVYYCARVGYGGNSDYWGQGTLVTVSS VL: DIQMTQSPSSVSASVGDRLTIICRASDDINRWLAWYQQTPGNAPKLLIHSATSLQSGVPSRFSGSGSGTDFTLTINSLQPEDFATYYCQQADSFPLTFGGGTKVEIK
12 | 0.74 | C5A (XPA23) VL N30R (antibody, V domains shown) VH: EVQLLESGGGLVQPGGSLRLSCAASGFTFSKYFMFWVRQAPGKGLEWVSVISPSGGMTRYADSVKGRFTISRDNSKNTLYLQMNSLRAEDTAVYYCARVGYGGNSDYWGQGTLVTVSS VL: DIQMTQSPSSVSASVGDRLTIICRASQDIRRWLAWYQQTPGNAPKLLIHSATSLQSGVPSRFSGSGSGTDFTLTINSLQPEDFATYYCQQADSFPLTFGGGTKVEIK
13 | 1.45 | C5A (XPA23) VL D28Y (antibody, V domains shown) VH: EVQLLESGGGLVQPGGSLRLSCAASGFTFSKYFMFWVRQAPGKGLEWVSVISPSGGMTRYADSVKGRFTISRDNSKNTLYLQMNSLRAEDTAVYYCARVGYGGNSDYWGQGTLVTVSS VL: DIQMTQSPSSVSASVGDRLTIICRASQYINRWLAWYQQTPGNAPKLLIHSATSLQSGVPSRFSGSGSGTDFTLTINSLQPEDFATYYCQQADSFPLTFGGGTKVEIK
14 | 0.6 | C5A (XPA23) VL N30Q (antibody, V domains shown) VH: EVQLLESGGGLVQPGGSLRLSCAASGFTFSKYFMFWVRQAPGKGLEWVSVISPSGGMTRYADSVKGRFTISRDNSKNTLYLQMNSLRAEDTAVYYCARVGYGGNSDYWGQGTLVTVSS VL: DIQMTQSPSSVSASVGDRLTIICRASQDIQRWLAWYQQTPGNAPKLLIHSATSLQSGVPSRFSGSGSGTDFTLTINSLQPEDFATYYCQQADSFPLTFGGGTKVEIK
15 | 1.09 | C5A (XPA23) VL Q27H (antibody, V domains shown) VH: EVQLLESGGGLVQPGGSLRLSCAASGFTFSKYFMFWVRQAPGKGLEWVSVISPSGGMTRYADSVKGRFTISRDNSKNTLYLQMNSLRAEDTAVYYCARVGYGGNSDYWGQGTLVTVSS VL: DIQMTQSPSSVSASVGDRLTIICRASHDINRWLAWYQQTPGNAPKLLIHSATSLQSGVPSRFSGSGSGTDFTLTINSLQPEDFATYYCQQADSFPLTFGGGTKVEIK
16 | 0.81 | C5A (XPA23) VL N30D (antibody, V domains shown) VH: EVQLLESGGGLVQPGGSLRLSCAASGFTFSKYFMFWVRQAPGKGLEWVSVISPSGGMTRYADSVKGRFTISRDNSKNTLYLQMNSLRAEDTAVYYCARVGYGGNSDYWGQGTLVTVSS VL: DIQMTQSPSSVSASVGDRLTIICRASQDIDRWLAWYQQTPGNAPKLLIHSATSLQSGVPSRFSGSGSGTDFTLTINSLQPEDFATYYCQQADSFPLTFGGGTKVEIK
17 | 0.97 | C5A (XPA23) VL N30T (antibody, V domains shown) VH: EVQLLESGGGLVQPGGSLRLSCAASGFTFSKYFMFWVRQAPGKGLEWVSVISPSGGMTRYADSVKGRFTISRDNSKNTLYLQMNSLRAEDTAVYYCARVGYGGNSDYWGQGTLVTVSS VL: DIQMTQSPSSVSASVGDRLTIICRASQDITRWLAWYQQTPGNAPKLLIHSATSLQSGVPSRFSGSGSGTDFTLTINSLQPEDFATYYCQQADSFPLTFGGGTKVEIK
18 | 1 | C5A (XPA23) VL N30H (antibody, V domains shown) VH: EVQLLESGGGLVQPGGSLRLSCAASGFTFSKYFMFWVRQAPGKGLEWVSVISPSGGMTRYADSVKGRFTISRDNSKNTLYLQMNSLRAEDTAVYYCARVGYGGNSDYWGQGTLVTVSS VL: DIQMTQSPSSVSASVGDRLTIICRASQDIHRWLAWYQQTPGNAPKLLIHSATSLQSGVPSRFSGSGSGTDFTLTINSLQPEDFATYYCQQADSFPLTFGGGTKVEIK
19 | 0.94 | C5A (XPA23) VL D28R (antibody, V domains shown) VH: EVQLLESGGGLVQPGGSLRLSCAASGFTFSKYFMFWVRQAPGKGLEWVSVISPSGGMTRYADSVKGRFTISRDNSKNTLYLQMNSLRAEDTAVYYCARVGYGGNSDYWGQGTLVTVSS VL: DIQMTQSPSSVSASVGDRLTIICRASQRINRWLAWYQQTPGNAPKLLIHSATSLQSGVPSRFSGSGSGTDFTLTINSLQPEDFATYYCQQADSFPLTFGGGTKVEIK
20 | 3.3 | C5A (XPA23) VL Q27S (antibody, V domains shown) VH: EVQLLESGGGLVQPGGSLRLSCAASGFTFSKYFMFWVRQAPGKGLEWVSVISPSGGMTRYADSVKGRFTISRDNSKNTLYLQMNSLRAEDTAVYYCARVGYGGNSDYWGQGTLVTVSS VL: DIQMTQSPSSVSASVGDRLTIICRASSDINRWLAWYQQTPGNAPKLLIHSATSLQSGVPSRFSGSGSGTDFTLTINSLQPEDFATYYCQQADSFPLTFGGGTKVEIK
21 | 5.25 | C5A (XPA23) VL D28S (antibody, V domains shown) VH: EVQLLESGGGLVQPGGSLRLSCAASGFTFSKYFMFWVRQAPGKGLEWVSVISPSGGMTRYADSVKGRFTISRDNSKNTLYLQMNSLRAEDTAVYYCARVGYGGNSDYWGQGTLVTVSS VL: DIQMTQSPSSVSASVGDRLTIICRASQSINRWLAWYQQTPGNAPKLLIHSATSLQSGVPSRFSGSGSGTDFTLTINSLQPEDFATYYCQQADSFPLTFGGGTKVEIK
22 | 1.19 | C5A (XPA23) VL D28T (antibody, V domains shown) VH: EVQLLESGGGLVQPGGSLRLSCAASGFTFSKYFMFWVRQAPGKGLEWVSVISPSGGMTRYADSVKGRFTISRDNSKNTLYLQMNSLRAEDTAVYYCARVGYGGNSDYWGQGTLVTVSS VL: DIQMTQSPSSVSASVGDRLTIICRASQTINRWLAWYQQTPGNAPKLLIHSATSLQSGVPSRFSGSGSGTDFTLTINSLQPEDFATYYCQQADSFPLTFGGGTKVEIK
